This note sets out measurements from patent US20180280504A1, “GLYCAN-INTERACTING COMPOUNDS AND METHODS OF USE” (SIAMAB THERAPEUTICS, INC., priority 2014, published 2018).

For data set [1], the system named is MDA-MD-231 STn− cells. As to the kind of experiment: Fluorescence microscopy of ALEXA FLUOR 488-S3F binding and internalization, STn− cells. It is filed as cell-based, human. How it is done: To analyze the internalization of antibodies by fluorescence microscopy, the following procedure was carried out. MDA-MD-231 STn− cells and MDA-MD-231 STn+ cells were cultured in Eagles minimum essential medium containing 10% fetal calf serum, 100 μg/ml penicillin, 100 UI/ml streptomycin, 45 μg/ml gentamycin, as well as 1 mg/ml G418 for STn+ cells. Cells were sub-cultured by treatment with Accutase buffer and seeded in microscope chamber slides at 10,000 cells/chamber in the case of STn− cells and 20,000 cells/chamber in the case of STn+ cells. All cells were cultured overnight at 37° C. Cells were subsequently incubated with either 1.5, 5 or 10 μg/ml S3F conjugated with ALEXA FLUOR® 488 dye (Thermo Fisher Scientific, Pittsburgh, Pa.) in complete media at 4° C. for 1 hour. Cells were then washed with ice-cold PBS in order to remove antibodies that were not bound to the cell surface. Complete media was then administered to each chamber and the cells were incubated at 37° C. for either 0, 15, 30 or 60 minutes in order to allow internalization of any surface-bound antibodies.
Following each time point, cells were washed twice with PBS in order to remove unbound antibodies. […] Cells were visualized the following day by analysis on a Nikon Eclipse Ti fluorescence microscope.

For data set [2], the system named is E3-STn tumors. The data set is described as follows: E3-STn murine breast tumor allograft model, tumor volume. It is filed as in vivo, mouse. The settings on record: for Average Tumor Volume (mm^3): 7G9-1A8 25 mg/kg i.p. twice weekly for 3 weeks, Paclitaxel daily for 5 days. How it is done: 3 test articles were evaluated during the study.
Standard deviation values are listed in parenthesis.

A short description of data set [3]: E3-STn allograft model, pathological evaluation of H&E stained organs. It is filed as in vivo, mouse. The conditions noted are these: 5 treated mice. Here is the method: At the end of the study described in Example 22, three mice from the vehicle control group and five mice that received 7G9-1A8 were chosen at random for post-study pathology assessment. Brain, colon, intestine, heart, kidney, liver, lung, mandibular salivary gland, pancreas, spleen, stomach, adrenal gland and thyroid gland organs were collected from each mouse. The organs were fixed in formalin (VWR; Radnor, Pa.) for about 48 hours, transferred to 70% ethanol (Sigma-Aldrich; St.Louis, Mo.), and then processed for standard H&E staining.
The H&E stained tissue slides were examined for pathology review. Liver sections from each animal had multifocal inflammation with or without concomitant hepatocellular necrosis. The histo-pathological changes were minimal to mild in severity. There was no appreciable difference in the morphology of lesions among vehicle control group mice and mice that received 7G9-1A8.

Data set [4] in a line: PAA-glycan ELISA, GcSTn-PAA. In kind it is binding. The conditions noted are these: 200 ng/well PAA antigen; 1:5 dilutions from 1 μM. Here is the method: 18D2 and 18C7 antibodies were further characterized by ELISA comprising antigens other than BSM. ELISAs were carried out according to Example 2, with the exception that ELISA plates were coated with biotinylated polyacrylamide (PAA) particles comprising either AcSTn (AcSTn-PAA), GcSTn (GcSTn-PAA) or Tn (Tn-PAA) as antigens. These particles present the antigens in a multivalent format. Briefly, 96-well ELISA plates were coated with 200 ng/well of each PAA antigen and blocked with PBS with 1% OVA. Antibodies were serially diluted at 1:5 in PBS with 1% OVA using an initial concentration of 1 μM. After blocking, antibodies were added to the plates and plates were incubated for 1.5 hours at room temperature. Binding of anti-STn antibodies was detected using a goat anti-mouse IgG-HRP conjugated antibody (Jackson Immunoresearch Laboratories, West Grove, Pa.). The reaction was developed by addition of HRP substrate and hydrogen peroxide. The reaction was then stopped by the addition of sulfuric acid (1.6 M). Optical densities were measured at 490 nm. A dose-response curve was generated using readings at each concentration tested and a non-linear regression curve was generated with four-parameter modeling to determine EC50 values for each antibody.

B1: S3F: 3F1 variable domains combined with IgG2a constant domains; heavy chain SEQ ID NO: 63, light chain SEQ ID NO: 64 (antibody)
heavy: QVQLQQSDAELVKPGASVKISCKASGYTFTDHAIHWVKQKPEQGLDWIGYISPGNGDIKYNEKFKDKVTLTADKSSSTACMHLNSLTSEDSAVYFCKRSLLALDYWGQGTTLTVSSAKTTAPSVYPLAPVCGDTTGSSVTLGCLVKGYFPEPVTLTWNSGSLSSGVHTFPAVLQSDLYTLSSSVTVTSSTWPSQSITCNVAHPASSTKVDKKIEPRGPTIKPCPPCKCPAPNLLGGPSVFIFPPKIKDVLMISLSPIVTCVVVDVSEDDPDVQISWFVNNVEVHTAQTQTHREDYNSTLRVVSALPIQHQDWMSGKEFKCKVNNKDLPAPIERTISKPKGSVRAPQVYVLPPPEEEMTKKQVTLTCMVTDFMPEDIYVEWTNNGKTELNYKNTEPVLDSDGSYFMYSKLRVEKKNWVERNSYSCSVVHEGLHNHHTTKSFSRTPGK
light: DIVMTQSHKFMSTSVGDRVSITCKASQDVGTNIAWYQQKPGRSPKVLIYSASTRHTGVPDRFTGSGSGTDFTLTISNVQSEDLTDYFCQQYSSFPLTFGVGTKLELKRADAAPTVSIFPPSSEQLTSGGASVVCFLNNFYPKDINVKWKIDGSERQNGVLNSWTDQDSKDSTYSMSSTLTLTKDEYERHNSYTCEATHKTSTSPIVKSFNRNEC
As to B1, the “internalization by STn− cells” value in data set [1] (37° C. 15-60 min, acid wash) is reported as “not efficiently internalized by STn− cells”. In data set [1] (488-S3F conjugate at 1.5, 5, 10 μg/ml, 4° C.), the “binding to the surface of STn− cells” value is “does not bind the surface of STn− cells”.

B2: 7G9: anti-STn mouse monoclonal, IgG2b κ, from mouse #4407; VH SEQ ID NO: 12, VL SEQ ID NO: 9 (antibody, V domains shown)
VH: QVQLKESGPGLVAPSQNLSITCTVSGFSLTSYGVNWVRQPPGKGLEWLGVIWGDGSTNYHSALISRLIISKENSKSQVFLKLNSLQTNDTATYYCTKGFVYWGQGTLVTVSA
VL: QIVLTQSPAIMSASPGEKVTMTCSASSSVSYMHWYQQKSGTSPKRWIFDTSKLASGVPARFSGSGSGTSYSLTISSMEAEDAATYYCQQWSSNLLTFGAGTKLELK
As for B2, the “average tumor volumes as compared to Paclitaxel and vehicle control” value in data set [2] (25 mg/kg i.p. twice weekly for 3 weeks) is recorded as “greatly reduced”. Moreover, the “Average Tumor Volume (mm^3)” value was found to be 112.4 mm^3 in data set [2] (day 1); 148.7 mm^3 in data set [2] (day 4); 161.9 mm^3 in data set [2] (day 6); 152.8 mm^3 in data set [2] (day 8); 136.3 mm^3 in data set [2] (day 11); 118.4 mm^3 in data set [2] (day 13). The “Average Tumor Volume (mm^3)” value in data set [2] (day 15) came out at 105.1 mm^3; in data set [2] (day 18), 99.5 mm^3; in data set [2] (day 20), 91.7 mm^3; in data set [2] (day 22), 105.2 mm^3; in data set [2] (day 26), 102.8 mm^3; in data set [2] (day 27), 107.4 mm^3. The “Average Tumor Volume (mm^3)” value in data set [2] (day 29) amounted to 147.1 mm^3; in data set [2] (day 32), 160.6 mm^3; in data set [2] (day 34), 164.7 mm^3; in data set [2] (day 36) it was 212.1 mm^3; in data set [2] (day 39), 206.6 mm^3; in data set [2] (day 41) it was 235.3 mm^3. Also, the epicardial inflammation entry in data set [3] is given as “not observed”. For the same molecule, the “neutrophil aggregates in the muscularis mucosa of the stomach” value in data set [3] is on record as “not observed”. Besides, the “liver histopathology (multifocal inflammation, hepatocellular necrosis) vs vehicle control” value in data set [3] (3 vehicle mice) was “no significant difference between the groups”.

B3: 18C7: anti-STn mouse monoclonal, IgG2c κ, from mouse #4436; VH SEQ ID NO: 4, VL SEQ ID NO: 5 (antibody, V domains shown)
VH: QVTLKESGPGILQPSQTLSLTCSFSGFSLSTFGMGVGWIRQPSGKGLEWLAHIWWDDDKYYNPALKSRLTISKDTSKNQVFLKIANVDTADTATYYCARIAYYYGSERDYWGQGTTLTVSS
VL: QIVLTQSPAIMSASPGEKVTMTCSASSSISYMHWYHQKPGTSPKRWIYDTSKLASGVPARFSGSGSGTSYSLTISSMEAEDAATYYCHQRSSYTFGGGTKLEIKR
Consider B3, for which the EC50 in data set [4] was found to be 2.59 nM.
